Measurements taken from US20100285597A1 (UNIVERSITY OF ROCHESTER, published 2010).

Target: T1, BACE1 (UniProt P56817 46-501, limits assumed)
T1 construct: Detected as monomer and dimer in the co-immunoprecipitates; also called β-secretase
Test: co-immunoprecipitation from HEK 293 lysates with nectin-1 cytoplasmic specific antibody, anti-BACE1 Western blot
Experimental: To define the minimal region within the ectodomain of nectin-1 required for BACE1 interaction, immunoprecipitations between the nectin-1 truncation mutants and BACE1 were performed. BACE1 and full length or truncated nectin-1 were co-expressed in HEK 293 cells and harvested 48 hr. after transfection. To confirm to the efficiencies of the co-transfections, equal volumes of cell lysate were loaded on SDS-PAGE gels and analyzed by Western blot. Transfection efficiency was similar for nectin-1 and its derivates (FIG. 10A) and BACE1 (FIG. 10B). Immunoprecipitation was performed with a nectin-1 cytoplasmic specific antibody and precipitates were analyzed on two separate 10% SDS-PAGE. Western blots were probed with anti-nectin-1 (FIG. 10C) or anti-BACE1 (FIG. 10D) antibodies. The nectin-1 antibody directly immunoprecipitated the respective nectin-1 polypeptides and processed CTFs (FIG. 10C). Furthermore, BACE1, both monomer and dimer, was immunoprecipitated by the nectin-1 antibody, confirming the association of BACE1 with nectin-1. Two truncation mutants Δ28-250 and Δ28-300, interacted with BACE1 very strongly.

T1 sequence (P56817 46-501 limits assumed): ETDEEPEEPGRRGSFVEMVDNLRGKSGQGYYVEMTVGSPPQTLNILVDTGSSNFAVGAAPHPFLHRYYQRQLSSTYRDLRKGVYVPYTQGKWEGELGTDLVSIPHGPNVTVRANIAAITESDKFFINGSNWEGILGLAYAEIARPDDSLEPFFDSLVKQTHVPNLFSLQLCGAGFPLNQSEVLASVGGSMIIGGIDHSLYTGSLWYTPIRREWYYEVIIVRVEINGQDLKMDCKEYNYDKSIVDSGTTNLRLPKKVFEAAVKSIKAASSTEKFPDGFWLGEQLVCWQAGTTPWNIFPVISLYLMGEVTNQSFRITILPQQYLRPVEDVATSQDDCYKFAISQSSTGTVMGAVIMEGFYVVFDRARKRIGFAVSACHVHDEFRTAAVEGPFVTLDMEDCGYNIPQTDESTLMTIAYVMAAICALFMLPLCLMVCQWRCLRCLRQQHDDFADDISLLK

binding result: no binding
B1: nectin-1 truncation mutant Δ28-349 (receptor)
chain: PTAIIGGVAGSILLVLIVVGGIVVALRRRRHTFKGDYSTKKHVYGNGYSKAGIPQHHPPMAQNLQYPDDSDDEKKAGPLGGSSYEEEEEEEEGGGGGERKVGGPHPKYDEDAKRPYFTVDEAEARQDGYGDRTLGYQYDPEQLDLAENMVSQNDGSFISKKEWYV
notes: see m5; not shown: flag tag at the C-terminus
